The labels stand for the following.
T1: Boi1 SH3 (BOI1_YEAST), P38041
T1 chain: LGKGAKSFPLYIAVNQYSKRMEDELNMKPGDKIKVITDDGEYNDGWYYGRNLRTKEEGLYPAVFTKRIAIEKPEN

T2: Boi2 SH3 (BOI2_YEAST), P39969
T2 chain: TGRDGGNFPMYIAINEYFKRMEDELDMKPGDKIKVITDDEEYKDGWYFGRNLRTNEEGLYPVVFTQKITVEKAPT

T3: Myo5 SH3 (MYO5_YEAST), Q04439
T3 chain: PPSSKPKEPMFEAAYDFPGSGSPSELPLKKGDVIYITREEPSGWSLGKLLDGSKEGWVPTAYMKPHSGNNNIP

T4: Rvs167 SH3 (RV167_YEAST), P39743
T4 chain: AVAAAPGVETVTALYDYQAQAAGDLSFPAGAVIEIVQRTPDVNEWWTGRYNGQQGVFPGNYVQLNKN

T5: Yfr024 SH3 (LSB3_YEAST), P43603
T5 chain: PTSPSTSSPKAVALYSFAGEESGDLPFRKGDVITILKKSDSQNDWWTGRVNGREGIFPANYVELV

T6: Yhr016c SH3 (YSC84_YEAST), P32793
T6 chain: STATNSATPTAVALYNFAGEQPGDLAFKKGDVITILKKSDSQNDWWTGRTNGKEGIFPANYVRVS

B1: YER032W 884-897 (peptide)
chain: PKKSRVLPPLPFPL
B2: YBR123C 400-413 (peptide)
chain: PIVKKNVPKPPPLV
B3: YPL204W 472-485 (peptide)
chain: PPQMRSNPQQPPQD
B4: YKR001C 557-570 (peptide)
chain: PKTGKPLPTQPSSS
B5: YJL172W 61-74 (peptide)
chain: PKSEKIEPLSPSFK
B6: YJL021C 6-19 (peptide)
chain: PPLPRAPPVPPATF
B7: YPR059C 36-49 (peptide)
chain: PNPLKKAPIPPLAY
B8: YLR183C 18-31 (peptide)
chain: PPNYKQQPNSPSSN
B9: YDL117W 352-365 (peptide)
chain: PKSPKAYPKLPDIQ
B10: YIL156W 508-521 (peptide)
chain: PIRLRKRPPPPPPV
B11: YLL015W 59-72 (peptide)
chain: PPRFKNFPTLPSKI
B12: YMR164C 159-172 (peptide)
chain: PLRERIIPILPANS
B13: YOR181W 345-358 (peptide)
chain: PPPPRRGPAPPPPP
B14: YHR037W 25-38 (peptide)
chain: PKHIRNEPVKPFRN

Chain of Sho1 SH3 (SHO1_YEAST), P40073 (P40073 295-366): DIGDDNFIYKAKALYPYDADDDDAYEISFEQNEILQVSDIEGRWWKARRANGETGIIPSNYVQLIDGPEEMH

The target in the first assay is T1, Boi1 SH3 (BOI1_YEAST), P38041. Nature of the assay: SPOT array.
B1 gave a normalised SPOT signal, Boehringer light units (BLU); mean over the file's lines of this peptide of 940.
Take B2: the normalised SPOT signal, Boehringer light units (BLU); mean over the file's lines of this peptide was found to be 262.
Same read-out and setting: for B3 the value was 92.2; for B4, 609; for B5, 536.
Same read-out and setting: the result for B6 reads 152; that for B7, 73.1; that for B8, 61.
As to B9, the normalised SPOT signal, Boehringer light units (BLU); mean over the file's lines of this peptide came out at 409.
Same read-out and setting: the result for B10 reads 6390; that for B11, 572; that for B12, 340.
On the same count and under the same terms, the result for B13 reads 4340.
Same read-out and setting: the result for B14 reads 1660.

A further assay deals with T2, Boi2 SH3 (BOI2_YEAST), P39969. Nature of the assay: SPOT array.
The molecule B1 had a normalised SPOT signal, Boehringer light units (BLU); mean over the file's lines of this peptide of 16.2.
B2 showed a normalised SPOT signal, Boehringer light units (BLU); mean over the file's lines of this peptide of 167.
On the same count and under the same terms, the result for B3 reads 194; that for B4, 9.7.
In turn, B5 showed a normalised SPOT signal, Boehringer light units (BLU); mean over the file's lines of this peptide of 7.7.
On to B6, for which the normalised SPOT signal, Boehringer light units (BLU); mean over the file's lines of this peptide was found to be 13.2.
On the same count and under the same terms, for B7 the value was 0.
On the same count and under the same terms, the result for B8 reads 17.5.
Still for that read-out and setting: for B9 the value was 23.5; for B10, 39.2.
Molecule B11 showed a normalised SPOT signal, Boehringer light units (BLU); mean over the file's lines of this peptide of 60.1.
Still for that read-out and setting: the result for B12 reads 16; that for B13, 19.8.
Same read-out and setting: the result for B14 reads 0.

Another assay addresses T3, Myo5 SH3 (MYO5_YEAST), Q04439. Nature of the assay: SPOT array.
B1 had a normalised SPOT signal, Boehringer light units (BLU); mean over the file's lines of this peptide of 3590.
Still for that read-out and setting: the result for B2 reads 154.
Still for that read-out and setting: for B3 the value was 268; for B4, 193.
The same measure, in the same setting: for B5 the value was 116; for B6, 35900; for B7, 137.
For the molecule B8, the normalised SPOT signal, Boehringer light units (BLU); mean over the file's lines of this peptide came to 148.
The same measure, in the same setting: the result for B9 reads 357; that for B10, 60300.
Still for that read-out and setting: the result for B11 reads 634; that for B12, 175; that for B13, 15000.
The molecule B14 displayed a normalised SPOT signal, Boehringer light units (BLU); mean over the file's lines of this peptide of 361.

In a further assay the target is T4, Rvs167 SH3 (RV167_YEAST), P39743. Nature of the assay: SPOT array.
Molecule B1 gave a normalised SPOT signal, Boehringer light units (BLU); mean over the file's lines of this peptide of 18900.
B2 showed a normalised SPOT signal, Boehringer light units (BLU); mean over the file's lines of this peptide of 33.
Same read-out and setting: for B3 the value was 306; for B4, 64.7; for B5, 44.3.
Still for that read-out and setting: the result for B6 reads 17.7; that for B7, 28.8.
On the same count and under the same terms, for B8 the value was 1; for B9, 0; for B10, 289.
With B11, the normalised SPOT signal, Boehringer light units (BLU); mean over the file's lines of this peptide was 210.
On the same count and under the same terms, for B12 the value was 261; for B13, 57; for B14, 49.7.

The next assay addresses Sho1 SH3 (SHO1_YEAST), P40073. Nature of the assay: SPOT array.
On to B1, for which the normalised SPOT signal, Boehringer light units (BLU); mean over the file's lines of this peptide was 25000.
Turning to B2, the normalised SPOT signal, Boehringer light units (BLU); mean over the file's lines of this peptide stood at 50.2.
The same measure, in the same setting: the result for B3 reads 56.5.
Consider B4, for which the normalised SPOT signal, Boehringer light units (BLU); mean over the file's lines of this peptide worked out at 22000.
With B5, the normalised SPOT signal, Boehringer light units (BLU); mean over the file's lines of this peptide is 84.8.
Same read-out and setting: for B6 the value was 29.4; for B7, 20.3.
B8 registered a normalised SPOT signal, Boehringer light units (BLU); mean over the file's lines of this peptide of 27.6.
Same read-out and setting: the result for B9 reads 143; that for B10, 98.1.
Still for that read-out and setting: the result for B11 reads 3830; that for B12, 950.
Turning to B13, the normalised SPOT signal, Boehringer light units (BLU); mean over the file's lines of this peptide came to 8.1.
On the same count and under the same terms, the result for B14 reads 46.8.

The target in another assay is T5, Yfr024 SH3 (LSB3_YEAST), P43603. The assay can be described thus: SPOT array.
Turning to B1, the normalised SPOT signal, Boehringer light units (BLU); mean over the file's lines of this peptide came out at 12800.
The same measure, in the same setting: the result for B2 reads 64.6; that for B3, 3150.
On the same count and under the same terms, the result for B4 reads 89.9.
The same measure, in the same setting: the result for B5 reads 0.
For the molecule B6, the normalised SPOT signal, Boehringer light units (BLU); mean over the file's lines of this peptide amounted to 135.
As for B7, the normalised SPOT signal, Boehringer light units (BLU); mean over the file's lines of this peptide was 15.3.
On the same count and under the same terms, the result for B8 reads 184.
Same read-out and setting: for B9 the value was 83.8; for B10, 292.
B11: the normalised SPOT signal, Boehringer light units (BLU); mean over the file's lines of this peptide is 2550.
Same read-out and setting: for B12 the value was 949; for B13, 212.
Same read-out and setting: for B14 the value was 928.

A further assay addresses T6, Yhr016c SH3 (YSC84_YEAST), P32793. The assay can be described thus: SPOT array.
In turn, B1 returned a normalised SPOT signal, Boehringer light units (BLU); mean over the file's lines of this peptide of 3660.
In the case of B2, the normalised SPOT signal, Boehringer light units (BLU); mean over the file's lines of this peptide worked out at 27.1.
Molecule B3 displayed a normalised SPOT signal, Boehringer light units (BLU); mean over the file's lines of this peptide of 456.
Still for that read-out and setting: for B4 the value was 24.1.
B5 registered a normalised SPOT signal, Boehringer light units (BLU); mean over the file's lines of this peptide of 0.1.
The same measure, in the same setting: for B6 the value was 10.8; for B7, 16.4; for B8, 30.5.
On the same count and under the same terms, for B9 the value was 24.1; for B10, 25.6; for B11, 87.6.
Same read-out and setting: the result for B12 reads 84.4.
For the molecule B13, the normalised SPOT signal, Boehringer light units (BLU); mean over the file's lines of this peptide is 39.4.
The same measure, in the same setting: for B14 the value was 59.8.

The values are drawn from publication PMC314469, “Protein Interaction Networks by Proteome Peptide Scanning” (PLoS Biology, 2004).
